In patent US20070231333A1, “ANTI-5T4 ANTIBODIES AND USES THEREOF” (Wyeth, priority 2006, published 2007):

T1: human 5T4 antigen (Homo sapiens, UniProt Q13641)
T1 sequence (Q13641 32-420): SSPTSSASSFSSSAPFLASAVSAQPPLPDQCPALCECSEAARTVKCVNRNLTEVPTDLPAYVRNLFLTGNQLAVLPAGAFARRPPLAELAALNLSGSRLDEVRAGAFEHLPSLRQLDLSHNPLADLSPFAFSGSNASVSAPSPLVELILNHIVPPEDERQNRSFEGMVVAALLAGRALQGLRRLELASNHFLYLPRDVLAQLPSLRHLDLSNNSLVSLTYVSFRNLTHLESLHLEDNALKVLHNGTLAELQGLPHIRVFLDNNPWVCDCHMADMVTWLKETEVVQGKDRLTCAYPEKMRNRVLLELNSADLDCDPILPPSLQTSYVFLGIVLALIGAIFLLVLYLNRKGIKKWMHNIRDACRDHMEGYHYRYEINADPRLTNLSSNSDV


Biological target: T1, human 5T4 antigen
Assay: BIACORE analysis of antibody binding to human 5T4 antigen immobilized on a CM5 chip
Details: chimeric and humanized antibodies, Table 12
Protocol: To assess the binding specificity and affinity of the A1, A2, and A3 antibodies, BIACORE® analysis was performed using human 5T4 antigen immobilized on a CM5 chip. BIACORE® technology utilizes changes in the refractive index at the surface layer upon binding of the antibody to the 5T4 antigen immobilized on the layer. Binding is detected by surface plasmon resonance (SPR) of laser light refracting from the surface. Analysis of the signal kinetics on rate and off rate allows discrimination between non-specific and specific interactions. The H8 anti-5T4 antibody was used as a control. H8 is a hybridoma-generated monoclonal mouse IgG1 antibody described in PCT International Publication No. WO 98/55607 and in Forsberg et al. (1997) J. Biol. Chem. 272(19):[…].
To assess the binding specificity and affinity of the chimeric and humanized H8, A1, A2, and A3 antibodies, BIACORE® analysis was performed using human 5T4 antigen immobilized on a CM5 chip. See Example 2.

KA | Kd | ka | kd | Molecule
1.7e+09 M⁻¹ | 5.9 nM | 27000 M⁻¹ s⁻¹ | 1.6e-05 s⁻¹ | Chimeric A3 + C91Y: chimeric A3 antibody bearing C91Y mutation in the heavy chain variable region (antibody, V domains shown) VH: EVQLVESGGGLVQPKGSLKLSCAASGFTFNTYAMNWVRQAPGKGLEWVARIRSKSNNYATYYADSVKDRFTISRDDSQSMLYLQMNNLKTEDTAMYYCVRQWDYDVRAMNYWGQGTSVTVSS VL: DIVMTQSHIFMSTSVGDRVSITCKASQDVDTAVAWYQQKPGQSPKLLIYWASTRLTGVPDRFTGSGSGTDFTLTISNVQSEDLADYFCQQYSSYPYTFGGGTKLEIK
2.6e+09 M⁻¹ |  | 170000 M⁻¹ s⁻¹ | 6.3e-05 s⁻¹ | Chimeric A1 + C67F: chimeric A1 antibody bearing C67F mutation in the heavy chain variable region (antibody, V domains shown) VH: QIQLVQSGPELKKPGETVKISCKASGYTFTNFGMNWVKQGPGEGLKWMGWINTNTGEPRYAEEFKGRFAFSLETTASTAYLQINNLKNEDTATYFCARDWDGAYFFDYWGQGTTLTVSS VL: SIVMTQTPKFLLVSAGDRVTITCKASQSVSNDVAWYQQKPGQSPKLLINFATNRYTGVPNRFTGSGYGTDFTFTISTVQAEDLALYFCQQDYSSPWTFGGGTKLEIK
